Assay results from patent US20130344073A1 (OMEROS, published 2013).

Molecular target: T1, human MASP-3 (human)
T1 construct: For selection and FACS it was full-length or a fragment, fused to an Fc domain or labelled with Dylight; also called MASP-3 antigen; rMASP-3
T1 chain: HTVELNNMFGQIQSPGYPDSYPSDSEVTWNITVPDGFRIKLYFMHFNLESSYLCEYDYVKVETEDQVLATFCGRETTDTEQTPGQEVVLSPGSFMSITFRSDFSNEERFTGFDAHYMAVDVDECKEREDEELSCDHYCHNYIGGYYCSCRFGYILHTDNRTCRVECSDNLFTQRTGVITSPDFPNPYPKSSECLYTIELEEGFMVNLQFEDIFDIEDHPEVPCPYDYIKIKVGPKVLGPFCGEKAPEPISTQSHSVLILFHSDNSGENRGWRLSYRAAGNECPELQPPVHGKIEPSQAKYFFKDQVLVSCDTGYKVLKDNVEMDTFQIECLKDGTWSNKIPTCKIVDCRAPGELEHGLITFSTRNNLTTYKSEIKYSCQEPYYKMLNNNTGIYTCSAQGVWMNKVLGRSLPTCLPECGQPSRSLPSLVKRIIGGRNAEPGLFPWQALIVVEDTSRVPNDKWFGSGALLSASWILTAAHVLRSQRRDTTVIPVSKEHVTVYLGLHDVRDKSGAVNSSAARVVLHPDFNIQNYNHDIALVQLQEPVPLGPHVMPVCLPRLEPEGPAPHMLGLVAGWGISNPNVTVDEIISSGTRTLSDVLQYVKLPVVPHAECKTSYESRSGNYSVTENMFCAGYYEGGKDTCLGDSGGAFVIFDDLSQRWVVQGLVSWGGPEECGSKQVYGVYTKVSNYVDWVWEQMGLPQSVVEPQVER
Assay: saturation binding; DTLacO cells expressing the antibody stained with various concentrations of fluorescent-labeled soluble antigen
Source text: Recombinant antibodies were generated by cloning PCR-amplified V regions into a vector that supported expression of human IgG1 in 293F cells (Yabuki et al., PLoS ONE, 7(4):e36032 (2012)).

Kd: ~31 nM
B1: MASP-3 specific clone M3J5 (antibody, V domains shown)
VH: AVTLDESGGGLQTPGGGLSLVCKASGFTFSSYAMGWMRQAPGKGLEYVAGIRSDGSFTLYATAVKGRATISRDNGQSTVRLQLNNLRAEDTATYFCTRSGNVGDIDAWGHGTEVIVSS
VL: ALTQPASVSANPGETVKITCSGGYSGYAGSYYYGWYQQKAPGSAPVTLIYYNNKRPSDIPSRFSGSLSGSTNTLTITGVRADDEAVYFCGSADNSGAAFGAGTTLTVL
notes: Chicken V regions; recombinant form is chimeric with human IgG1 and lambda constant regions; also called Clone 5; DTLacO clone M3J5
